Measurements taken from US20200323888A1, “INHIBITORS” (VESTLANDETS INNOVASJONSSELSKAP AS, priority 2017, published 2020).
Blank lines part the entries; values can stand above or below the molecule they belong to. Primed or numbered codes have the meaning given here. Ends that are not written are not given here. Ac′ = acetamide linker; CoA = coenzyme A

What was measured:
NatA = target: T1, NatA (Homo sapiens, UniProt P41227); conditions: NatA complex; Foyn et al. 2013; cited from earlier work
T1 construct: endogenous in cells
T1 sequence (P41227 1-235): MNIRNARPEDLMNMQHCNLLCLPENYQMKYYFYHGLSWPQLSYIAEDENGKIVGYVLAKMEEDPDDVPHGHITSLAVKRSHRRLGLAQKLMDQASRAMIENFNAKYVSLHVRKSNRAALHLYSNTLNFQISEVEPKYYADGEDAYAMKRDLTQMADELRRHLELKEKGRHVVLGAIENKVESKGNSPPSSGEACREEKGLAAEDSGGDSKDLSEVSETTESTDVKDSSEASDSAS
T1 sequence (Q9BXJ9 1-866 partner): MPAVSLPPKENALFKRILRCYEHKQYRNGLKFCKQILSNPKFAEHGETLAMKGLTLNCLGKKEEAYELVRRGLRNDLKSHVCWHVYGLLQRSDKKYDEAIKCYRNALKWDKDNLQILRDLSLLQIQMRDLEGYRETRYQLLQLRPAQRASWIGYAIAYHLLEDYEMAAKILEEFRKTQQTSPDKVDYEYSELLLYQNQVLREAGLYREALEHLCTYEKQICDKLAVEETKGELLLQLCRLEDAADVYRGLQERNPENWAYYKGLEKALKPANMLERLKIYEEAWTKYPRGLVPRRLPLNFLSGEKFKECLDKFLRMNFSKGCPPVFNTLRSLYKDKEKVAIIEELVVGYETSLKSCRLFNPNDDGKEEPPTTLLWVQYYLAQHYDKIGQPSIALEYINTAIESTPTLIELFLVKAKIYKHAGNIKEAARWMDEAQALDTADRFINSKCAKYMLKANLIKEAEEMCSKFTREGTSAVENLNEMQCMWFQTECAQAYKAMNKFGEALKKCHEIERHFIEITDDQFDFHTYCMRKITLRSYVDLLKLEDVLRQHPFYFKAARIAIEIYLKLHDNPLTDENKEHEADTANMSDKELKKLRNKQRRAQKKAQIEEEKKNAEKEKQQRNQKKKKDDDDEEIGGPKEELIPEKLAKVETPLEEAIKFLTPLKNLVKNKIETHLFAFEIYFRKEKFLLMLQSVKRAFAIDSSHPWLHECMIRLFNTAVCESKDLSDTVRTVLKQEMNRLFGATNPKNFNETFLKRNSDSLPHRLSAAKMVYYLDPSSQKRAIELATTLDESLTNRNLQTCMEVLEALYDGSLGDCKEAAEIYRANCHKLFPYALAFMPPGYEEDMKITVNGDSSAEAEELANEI

Naa50 = target: T2, Naa50 (Homo sapiens, UniProt Q9GZZ1); conditions: NatE/hNaa50; Foyn et al. 2013; cited from earlier work
T2 sequence (Q9GZZ1 1-169): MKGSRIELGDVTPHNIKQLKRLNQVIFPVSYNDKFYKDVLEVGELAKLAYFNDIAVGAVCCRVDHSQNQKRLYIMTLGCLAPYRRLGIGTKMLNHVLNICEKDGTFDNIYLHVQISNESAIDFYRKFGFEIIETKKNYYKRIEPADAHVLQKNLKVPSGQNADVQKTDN

Naa80 [1] = target: T3, Naa80 (Homo sapiens, UniProt Q93015); assay: Nt-acetylation inhibitor assay for Naa80; assay type: biochemical; conditions: Naa80
T3 construct: The PCR product containing the CDS was inserted into the TOPO TA vector; made in house; host or cells: E. coli BL21 Star (DE3)
T3 sequence (Q93015 1-308 isoform Q93015-2): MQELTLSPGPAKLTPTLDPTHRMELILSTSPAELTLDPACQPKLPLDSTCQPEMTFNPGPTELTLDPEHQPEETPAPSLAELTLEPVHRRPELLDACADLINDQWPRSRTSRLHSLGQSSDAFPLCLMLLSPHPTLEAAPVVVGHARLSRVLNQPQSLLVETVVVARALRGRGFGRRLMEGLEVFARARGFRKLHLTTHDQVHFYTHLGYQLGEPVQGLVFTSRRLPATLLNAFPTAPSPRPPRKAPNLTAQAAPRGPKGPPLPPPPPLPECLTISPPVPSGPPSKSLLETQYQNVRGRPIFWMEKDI
Protocol: FIG. 10: (A) IC50 values for inhibitors measured in an Nt-acetylation inhibitor assay for Naa80. (B) Ki-values for CoA-Ac-DDDI-NH2 (SEQ ID NO: 6) for different human NATs measured in an Nt-acetylation inhibitor assay. All reactions were performed at least three times and in triplicate; errors bars represent standard deviation of each measurement.
The IC50 values for these compounds were tested as described in Foyn H, et al. (2013) “Design, Synthesis, and Kinetic Characterization of Protein N-Terminal Acetyltransferase Inhibitors”. ACS Chem Biol 8:1121-1127; and Foyn H, et al. (2017) “DTNB-Based quantification of in vitro enzymatic N-terminal acetyltransferase activity”, Methods Mol. Biol. 1574:9-15. Briefly, a colorimetric acetylation assay, 5,5′-dithiobis-(2-nitrobenzoic acid) (DTNB) assay was used to measure the catalytic activity of NATs after incubation with NAT inhibitors. In the DTNB assay, thiols present in the enzymatic product, CoA, cleaves DTNB and produces 2-nitro-5-thiobenzoate (NTB-), which absorbs light with a wavelength of 412 nm. NTB- forms in a 1:1 molar ratio to the thiol groups present in the sample. Therefore, NTB- was quantified by measuring the absorbance at 412 nm and indirectly measures peptide Nt-acetylation. […] After 30 min-60 min incubation at 37° C., the enzyme activity was quenched with quenching buffer (3.2 M guanidinium-HCl, 100 mM sodium phosphate dibasic pH 6.8). Triplicates were run for all positive samples, while negative controls were duplicated. As a negative control, reactions without enzyme were incubated at 37° C. before the reaction was quenched and added enzyme. In order to measure CoA production, 2 mM DTNB (dissolved in 100 mM sodium phosphate dibasic pH 6.8 and 10 mM EDTA) was added to the quenched reaction and the absorbance at 412 nm was measured with a spectrophotometer (Epoc). Background absorbance (determined in negative controls) was subtracted from the absorbance determined in each individual reaction. Thiophenolate production was quantified assuming ε=13.7×103 M−1 cm−1. For NatA and NatB enzyme complex inhibition, immunoprecipitation was performed using Naa15 ab (custom made, Arnesen T, Anderson D, Baldersheim C, Lanotte M, Varhaug J E, Lillehaug J R. (2005) Identification and characterization of the human ARD1-NATH protein acetyltransferase complex. Biochemical J 386(Pt 3):433-43.) or Naa20 ab (Nat5, abnova) respectively and protein A/G magnetic agarose beads (Millipore). A similar Nt-acetylation reaction was performed as previously described and the enzymatic activity was quenched with a final concentration of 1% TFA and analyzed by HPLC (Evjenth R, Van Damme P, Gevaert K, Arnesen T (2013) HPLC-based Quantification of in vitro N-terminal Acetylation. Methods Mol Biol 981:95-102.).
We then pursued Naa80 bisubstrate analogue inhibitors based on the results of the substrate screening and the sequences of the cellular substrates processed β- and γ-actin. We synthesized bisubstrate conjugates of Coenzyme A coupled to the tetrapeptides MDEL-NH2 (SEQ ID NO: 8), DDDI-NH2 (SEQ ID NO: 6), EEEI-NH2 (SEQ
ID NO: 7), and MLGT-NH2 (SEQ ID NO: 52) via an acetamide (Ac) linker.
The following additional Naa80 bisubstrate analogue inhibitors were produced and tested as described above: […]

Naa10 = target: T4, Naa10 (Homo sapiens, UniProt P41227); conditions: hNaa10, catalytic subunit of NatA; Foyn et al. 2013; cited from earlier work
T4 sequence (P41227 1-235): T1 sequence (P41227 1-235)

Naa80 [2] = target: T3, Naa80; assay: Naa80 substrate screening assay (peptide acetylation by purified Naa80); assay type: biochemical; conditions: Naa80 mediated acetylation of 24-mer peptide substrates
Excerpt: In order to investigate the in vitro activity of Naa80 further, an enzyme activity screening assay on purified Naa80 was undertaken using a broad substrate library (including amino acids, nucleosides, coenzymes, amines, saccharides, vitamins, antioxidants and peptides) modified from Kuhn et al. (Kuhn et al. (2013) “Broad-substrate screen as a tool to identify substrates for bacterial Gcn5-related N-acetyltransferases with unknown substrate specificity”. Protein Science 22(2):222-230). Among all of the potential substrates tested, only the peptides with N-terminal sequence of MDEL24 (SEQ ID NO: 45), DDDI24 (SEQ ID NO: 41) and EEEI24 (SEQ ID NO: 40) were acetylated, as shown in the following table:
The 24-mer substrate peptides differed in their 7 N-terminal amino acids while the 17 C-terminal residues (RWGRPVGRRRRPVRVYP, SEQ ID NO: 39) were kept constant: EEEI24 (EEEIAAL, SEQ ID NO: 40), DDDI24 (DDDIAAL, SEQ ID NO: 41), MDDD24 (MDDDIAA, SEQ ID NO: 42), SESS24 (SESSSKS, SEQ ID NO: 43), AVFA24 (AVFADLD, SEQ ID NO: 44), MDEL24 (MDELFPL, SEQ ID NO: 45), MELL24 (MELLSPP, SEQ ID NO: 46), MLGT24 (MLGTGPA, SEQ ID NO: 47), MTNK24 (MTNKSSL, SEQ ID NO: 48), MLGP24 (MLGPEGG, SEQ ID NO: 49), MAPL24 (MAPLDLD, SEQ ID NO: 50), MKKS24 (MKKSYSG, SEQ ID NO: 51).
Both MDEL (p65, SEQ ID NO: 8) and MDDD24 (unprocessed β-actin, SEQ ID NO: 42) represent cellular NatB substrates.

Naa80 [3] = target: T3, Naa80; assay: as above; assay type: biochemical; conditions: linear range of enzyme concentration
[4] = target: T5, NatA complex (Naa15-Naa10) (human, UniProt P41227 1-235; Q9BXJ9 1-866); assay: comparison of Ki values from Nt-acetylation inhibition assays
T5 sequence (looked up) 1: T1 sequence (P41227 1-235)
T5 sequence (looked up) 2: T1 sequence (Q9BXJ9 1-866 partner)

Naa40 = Naa40 (Homo sapiens, UniProt Q86UY6); assay: Ki calculated by Cheng-Prusoff from IC50 of Nt-acetylation inhibition assay
[5] = target: T5, NatA complex (Naa15-Naa10); assay: as above
NatB = NatB (Homo sapiens, UniProt P61599); assay: as above
Naa50 (human) = Naa50 (human) (UniProt Q9GZZ1); assay: as above
Naa30 = Naa30 (UniProt Q147X3); assay: as above
Naa60 = Naa60 (Homo sapiens, UniProt Q9H7X0); assay: as above
Naa10 (monomeric) [6] = target: T6, Naa10 (monomeric) (human, UniProt P41227 1-235, limits assumed); assay: as above
T6 construct: also called hNaa10; Ard1
T6 sequence (looked up): T1 sequence (P41227 1-235)

[7] = target: T5, NatA complex (Naa15-Naa10); assay: cell-based or functional assay
[8] = target: T7, MBP-HishNAA80 fusion protein (MBP-Naa80) (human, UniProt Q93015-2 1-308); assay: Ki from Nt-acetylation inhibitor assay, panel of human NATs
T7 construct: also called hNAA80/hNAT6; Fus-2/NAT6; not shown: MBP-His tag encoded by the pETM-41 vector
T7 sequence (looked up): T3 sequence (Q93015 1-308 isoform Q93015-2)

Naa10 (monomeric) [9] = target: T6, Naa10 (monomeric); assay: as above
[10] = target: T7, MBP-HishNAA80 fusion protein (MBP-Naa80); assay: cell-based or functional assay
[11] = target: T7, MBP-HishNAA80 fusion protein (MBP-Naa80); assay: cell-based or functional assay; remark: listed apart in the source

Sequence of Naa30 (Q147X3 whole entry): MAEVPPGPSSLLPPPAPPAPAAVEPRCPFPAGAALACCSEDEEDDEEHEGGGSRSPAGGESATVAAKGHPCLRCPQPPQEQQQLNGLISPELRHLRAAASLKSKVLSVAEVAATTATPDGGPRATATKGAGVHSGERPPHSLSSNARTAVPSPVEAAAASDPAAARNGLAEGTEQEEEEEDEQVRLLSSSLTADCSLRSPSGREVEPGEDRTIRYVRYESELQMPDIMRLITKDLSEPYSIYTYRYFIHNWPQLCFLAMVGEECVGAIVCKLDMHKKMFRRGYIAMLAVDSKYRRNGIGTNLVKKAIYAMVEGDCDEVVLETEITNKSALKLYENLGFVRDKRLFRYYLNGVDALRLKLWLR
Sequence of NatB (P61599 whole entry): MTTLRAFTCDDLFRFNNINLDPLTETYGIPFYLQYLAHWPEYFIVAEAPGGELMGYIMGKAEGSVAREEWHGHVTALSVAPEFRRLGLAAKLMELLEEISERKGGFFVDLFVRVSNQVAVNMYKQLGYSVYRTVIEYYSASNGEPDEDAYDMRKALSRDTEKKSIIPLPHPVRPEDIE

Molecule: CC(C)(COP(=O)(O)OP(=O)(O)OCC1OC(n2cnc3c(N)ncnc32)C(O)C1OP(=O)(O)O)C(O)C(=O)NCCC(=O)NCCSCC(=O)N[C@@H](CO)C(=O)N[C@@H](CCC(=O)O)C(=O)N[C@@H](CO)C(=O)N[C@@H](CO)C(N)=O (some centres unmarked) [CoA-Ac-SESS]
- IC50 (NatA): 15.1 µM

Molecule: CoA-Ac-MLG7: Previously disclosed bisubstrate analogue inhibitor of NatE/hNaa50 (SEQ ID NO: 49), Foyn 2013 ({CoA-Ac′}-MLGPEGG)
- IC50 (Naa50): 1290 nM

Molecule: CC[C@H](C)[C@H](NC(=O)[C@H](CCC(=O)O)NC(=O)[C@H](CCC(=O)O)NC(=O)[C@H](CCC(=O)O)NC(=O)CSCCNC(=O)CCNC(=O)C(O)C(C)(C)COP(=O)(O)OP(=O)(O)OCC1OC(n2cnc3c(N)ncnc32)C(O)C1OP(=O)(O)O)C(N)=O (some centres unmarked) [CoA-Ac-EEEI-NH2]
- IC50 (Naa80 [1]): 1160 nM
- IC50 (Naa10): 10.1 µM

The remaining lines, values ahead:

- Product formation (Naa80 [2]): 119 (±5.61) μM
- higher product formation compared to second best substrate MDDD24 (Naa80 [3]): 5 fold
Molecule: MDEL24: 24-mer substrate peptide: N-terminal MDELFPL (SEQ ID NO: 45) plus constant RWGRPVGRRRRPVRVYP (MDELFPLRWGRPVGRRRRPVRVYP)

- fold more potent towards NatA than all the other NATs tested [4]: > 100 fold
- Ki (Naa40): 41.9 µM
- Ki [5]: 143 nM
- Ki (NatB): 41.6 µM
- Ki (Naa50 (human)): 17.7 µM
- Ki (Naa30): 132 µM
- Ki (Naa60): 3.1 µM
- Ki (Naa10 (monomeric) [6]): 98.9 µM
- IC50 (µM), Nt-acetylation inhibition [7]: 1.46 µM
Molecule: CoA-Ac-SSNleP-NH2 (peptide)

- Ki [8]: 43 nM
- fold reduced potency for Naa10 compared to Naa80 (Naa10 (monomeric) [9]): 88 fold
- IC50 (µM), Nt-acetylation inhibition [10]: 0.38 µM
- fold more potent than CoA-Ac-EEEI-NH2 (IC50) [11]: 3 fold
- fold more potent than CoA-Ac-MDEL-NH2 (IC50) [11]: 3.3 fold
Molecule: {CoA-Ac}-DDDI-NH2 [CoA-Ac-DDDI-NH2]
